Laboratory results: the DeepSol protein solubility set

assay: soluble on expression in E. coli; label from the status in PepcDB or PDB records

Row | Sequence | soluble on expression in E. coli
1 | MGSDKIHHHHHHMDEIVKVLSQHDRILVVGHIMPDGDCVSSVLSLTLGLEKLGKEVKAAVDYKIPYVFEKFPYIDKIEENPNFDPELLVVVDASSPDRIGKFQDLLDKVPSVVIDHHSTNTNFGNWNWVDPSFAATAQMIFRINKALGVEYDSNLATLNYLGIATDTGFFRHSNADVRVFEDAYKLVKMGADAHFVAKEILENKRFEQFKLFAEVLERLQLLENGKIAYSYIDYDTYLRHNCTDEDSAGFVGELRSIRGVEVAVLFMEFPRGKIHVSMRSKDWFNVNEVAFELGGGGHPRAAGVTFEGKKIEEVIPRVINHLLKKFKEGVESESEKIPEGDVLGG | not soluble
2 | MTALESSYLNLAYPPRLDLGPQLTHDQLRSSMQSTMARHKGGPVWLFAYGSLIWRPECSAVERKRGRVHGYHRGLYLWSHEHRGTPELPGLVFGLDRGGSCSGFAYRLPEEQLDASLYALWQREMPYPSYRPHWLNCRLEDGSQVQALGFVLERHLPSYAGNLPDDVLNQVFESACGRYGTTRDYVEQTVQALRSHAMPDRNLEARLKRCKGADAHLEHHHHHH | not soluble
3 | TSKCTIIPGSGFRNDEGKYEIIADKCIEADYPQKDEVAAAAYMNKYVEEVILRAPEQWMWLHKRYKTMQDENEPKGIRYK | not soluble
4 | MGSDKIHHHHHHMINIIICEGKKSERVILNDYINTFFYNYNFEYNIKEFENGGDLLKKYPNNVDIIFMDIDLNDENGFNVSKEIKKFDESVRIIFVSSSNKYIKKGYEIGVYRYLEKPLKYSLFKEAISSYLKECYKNEAILSIKCKCKIYFIKVDDILYLEVLKNDLTIHTEKGIYTFKSSMKEIESNLEEHNFFRCHKSYLINLMKVNMLDIENNIVFINQNSIIVSRYKIKLLREKLNSCLVDVII | not soluble
5 | MKMQTYYYVLASRRFLLQEEPIEEVLKERTRHYHEQEKEIDFWLVPQPAFLEAPEFADIKAKCPQPAAAIISTNSQFITWLKLRLEYVVTGEFSAPSETIPNPLASLATASLEHHHHHH | soluble
6 | MGSDKIHHHHHHINKDNITTDTAEESKQQDSNKKQELPTATYMGGSNTITEVCDELGSAGASHVDTFKEWVTDFADSAGKNAKLKDTWSDAYKMKADTVKCMDGWEKKHDYSDADCRMTAFLLLDGLLHAQSTEDSYSGTYLMFDTEAIDNVDRYEIIRQNKDMFTTLYGEKSITDDKHPEKTFSDNWKKYGFQIDSNCISLISIAIYDPDSDAMFVGHTGVLIKYSDYYLFVEKIAFEQPYQATKVNNMDELLSILSLRPEYFGEEKEAGPFVYNNGDYVGTLELQG | not soluble
7 | SDRWEVPVNPSNVRSASSHQTVSASDRASDKVDERPATFSHFQLARCGEDYTLSMVSLAAYQAERRHRGNLIKDRSQSALPWVQVYHSETGLDYSFQIDRTTTVKVAGFNYNVPNDGETRHLYSAGTSQVNMPVITDNMSACIAVACAAENVDAGTGERRPGAKVRVFHLLPFRREDLMPEQVLASVRDYLRDIKEQGLTMRVALHGGNREGDFSVSTAEALKSLFADEGIPIEFDETCANRTSETLLGAVILNDNSTQFIKH | not soluble
8 | MSLGYIMDLRKELPNPHRPLIMCSAGIIIIDKKGRVLLQKRTDNNKWGLPGGSLELGESFEEAAIREAYEEVGLKVKSLSLFNVYSGKECYNKYPNGDEIYNASSIFISNDYEGEVILDGEESADAVFFKKVDIPSLEEVNPPDRIVIKDIIEKLNIEKYEGHHHHHH | not soluble
9 | MKIAVVGCDGFGKVHLRAMRNISGIEYYVFSRNEEKARECMKEFNAEGYFTRYEDVIKSNVDIVDLLVSHDQHYPMGVMAMKAGKHLMLEKPIARTIEEAMGLINTSKDTKRKFMVLEQFYFESSVRKAKELLPRLGNLSLIIVRSIHLYQ | not soluble
10 | MGSDKIHHHHHHMSEIKNRIDFVYIFDVQDGNPNGDPDAGNLPRVDAETGMGLVTDVCLKRKVRNYVQVAKGLEDGYDIFIKEKAVLNTLIDKAHDDSEVKNAKDKTDAARRFMCKNYFDVRTFGAVMSTGKNAGQVRGPIQFTFARSVDPIAAAEHSITRMAVATDAEAKKQSGDNRTMGRKATVPYGLYICHGFISANLAQQTGFSEEDLALFWEALKNMFDMDRSAARGLMSAQKLIVFKHDSVLGNAPANKLFDLVKVEKVCDGAPRSFGDYHVTIDKEHVPSNVTVEELI | not soluble
11 | MNIFEAIENRHSVRDFLERKMPERVKDDIENLLVKFITKKLDWKINLSSFPSYIYAKAEKHFDELVEYGFQGEQIVLFLTAQGFGTCWMARSPHPDVPYIIVFGYPRTRNFTRKRRPITSFLENDLEELPPEIVKIVEMTILAPSALNRQPWKIKYTGGELCISSERPVDLGIALSHAYLTAREIFKREPVIQKRGEDTYCLILNP | not soluble
12 | MRVSGSASSQDIISRINSKNINNNDSNEVKRIKDALCIESKERILYPQNLSRDNLKQMARYVNNTYVHYSGNCVLLSACLHYNIHHRQDILSSKNTASPTVGLDSAIVDKIIFGHELNQSYCLNSIDEVEKEILNRYDIKRESSFIISAENYIAPIIGECRHDFNAVVICEYDKKPYVQFIDSWKTSNILPSLQEIKKHFSSSGEFYVRAYDEKHD | not soluble
13 | MSLKIHGLIDAPFTPFYENGEVNYEPIEAYCQLLVRNGLQGVFINGSSGEGYMLTEDERMKLAERWMEVAPEGFKVIVHVGSTCVKSSKRLAEHAQKIGAWGIGAMAPPFPKVGRIEELVKYCEEIACGAPALPFYFYHIPAFNGAFLSMVAFLEAVDGRIPNFAGIKYTFESLYEYNQCRLYKNGKFDMLHGQDETILPCLAMGGAQGGIGGTTNYNGKELTGIIEAWKAGDLELARERQNFAQEVINVICHYRGNIVGGKRIMKLIGLDLGKNRTPFQNMTDEEEAAMKAELEAINFFEREGHHHHHH | soluble
14 | NSLTTHYRRSQLIALPVPGGKAKVEYCYAVNVPGDREIVTHSFAEWAVGDFNRQKETVLCDKLTAGSKITTECPSESFVGSRKHNGLSTSAKVMSMNASARSNSFVVNSGK | not soluble
15 | MGSDKIHHHHHHMGCEIDRDASGLHSLQGLAGRDVSVAAGAKVGWSFMGTGTIATELVVEAIRSVGHSPLWVVSRSKRDADHFAEDLGIPHSTTELGPVLQDPSVGFAYISASLKRRPHYITAAAGAGKHILCDGPISCTSKTASALVELCRGARASLVVNQRLRASTIHQTMRRLVRDGDIGAVQSIVLIRGGPYQAPPNRSARDFNDGSGIYLDVSVENIDLARFLTGAEPVEATALITSEKMVPSQATYILRLSDGSLFQAHESFRTADIESMVLVAGDRGALIAQGTLNGRTSGTLMRRADGRNEAVPVRDHDVHLATVREFANTRGQTPSWLSQGTDSVIALRTVEAVAMSAKKRRTVPIQG | not soluble
16 | GSHGRSRFVKKDGHCNVQFINVGEKRNETLVFSHNAVIAMRDGKLCLMWRVGNLQKSHLVEAHVRAQLLKSRITSEGEYIPLDQIDINVGFDSGIDRIFLVSPITIVHEIDEDSPLYDLSKQDIDNADFEIVVILEGMVEATAMTKQCRSSYLANEILWGHRYEPVLFEEKHYYKVDYSRFHKTYEVPNTPLCSARDLAEKKYILSNA | soluble
17 | MGSDKIHHHHHHMAKPLFDQLLASAQQARAPFHTPGHKLGRAIATHLQQAWGSAIFQSDLPELPELDNLYAASGVLAESQAQAAEVFGADRSWFLVNGSTGGLLAAILTICSPGDRLLLPRNAHRSLLSGCILSGAMPVWITPPEAADFDLVGVPTPEQVATALAQDPQIKAVVLVSPTYEGVCADVAAIAAIAHNHNLPLIIDAAHGAHLGFHPDLPRSPLHEGADLVVQSTHKLLGALTQAAMLHCKGDRIDPERLSQSLALVQSSSPSYLLLASLEAATEQMRTSAQDLLQVTIDLARQAHQRLAELPGLQLPALKIGNREGFPQWDRTRLVINFQSCGWSGFCADEYLHEQWQVTAELPSLSNLVFHLSLGNRIEDIDRLVTACDRLLSQEHQEELPPRLPVWLEPETILSPRQAWFSRHQTVSAEQAIGAIAAECVCPYPPGIPVLLPGERISKSAVDYLRQVQTTGGILSGCADPELTTLRIVQDSDTIHASCLS | not soluble
18 | MCASFAKFAERWNPLPETLLSWSKNNCDKVQPRPRDMSCEDVVQFVADCNFSGGGPGPGKLADTTNRQVADTFYQRTYENSPRVLPKYIYYNENTARDYGQFGNWYYPNYYPPTYLGFFDGRPASMAQLENDYKFAKGGHYPYNRADNIVNIGLQQTYLPTCLHDLFYCVRASNGQRPQAYLNYKEYRRDRDQAAEQMAQRDQDIKTLRRHRTRHHEDDE | not soluble
19 | MSLIQAIKAKIIVTPGHAPIKDSAVIVKNNIIEKIIPSTELKNNYYQIIDLKNSVVLPGFINSHIHLELHWVQKLLEPFKSFPSWLNQIIKLKKNFNNSKIPYWVNKSLNECINSGVTTIGEISSYDGLDYKPILDKKIRAVYFYELTNSTLKNIENKFFQSLIRNKTNPLINFRIFPHSIYSLDTKSLKRILAFAKKHNIKLGMHLSESIDEVKYSKRKRNNFEKEVFPKTSYKPTIETKPTTPLEYLDTLNINRQHITLIHMNNLSQNDFKILTKKEYPVIICPRSNLYLNQKLPNIKFFMNYMKTGLGTDGLSSNLSINFLDEINFLYLNAKKIINNPEEKILSIATIGGAKALGIDNEVGTIEKGKKADIIAFDLLNKNPYLSIIHSKKRNLKMSMINGKIIKLREGHHHHHH | soluble
20 | MSREQAILVGCQLAGVDDERFRYSMEELASLVATANGEVVAEVTQKREAPHPATYIGKGKTEELAAIVKQLEPDVVIFNSELSPSQARNLTKMLGEVKVIDRTQLILDIFARRARSKEGKLQVELAQLEYMLPRLSGQGEALSRLGGGIGTRGPGETKLETDRRHIRRRIDDIKAELVRIAEHRGRYRERRQKNQAFQVALVGYTNAGKSTIFNRLTAADSLEENLLFATLDPLTRKCVLPCGYTVLVTDTVGFIQDLPTTLVAAFRSTLEEVTEADLLLHVVDSSHPDYVAHERTVSRLLAELGASSIPMVTVYNKSDQKASEFIPTTTASIMISALSAADIDRLRYFLEEAVKQQMARYDVSIPSGEGKLLARLKSDTILHEWHYNEQGGTYDCQGYVLPTHPLYGELQSFQR | soluble
21 | DYNGQAKCMLEKVGNWNFDIFLFDRLTNGNSLVSLTFHLFSLHGLIEYFHLDMMKLRRFLVMIQEDYHSQNPYHNAVHAADVTQAMHCYLKEPKLANSVTPWDILLSLIAAATHDLDHPGVNQPFLIKTNHYLATLYKNTSVLENHHWRSAVGLLRESGLFSHLPLESRQQMETQIGALILATDISRQNEYLSLFRSHLDRGDLCLEDTRHRHLVLQMALKCADICNPCRTWELSKQWSEKVTEEFFHQGDIEKKYHLGVSPLCDRHTESIANIQIGFMTYLVEPLFTEWARFSNTRLSQTMLGHVGLNKASWKGLQR | soluble
22 | MKTCFLSIWRVVDPIYFFFSRLSLIDNDQKSVFRVRLTKYKGHHVVLSDGTHIRKNDVLVKIHLHNIKLIRELQSIESAVRKGIIIYQKVYPSMPLLLDYINNHKKSEKIKGNHWITMLDKGVERLGFDVITPVNPFYRCFKKVSHVPILYLTSKPVSLRHLPNSSYLFISKEKLQKTYQKKDMAGDPLEHHHHHH | not soluble
23 | MAHHHHHHMRCVRVVCQRFVEFVTFCSGVVPPLALLGYPLPGSGCQKTHPTALSLKGARVGDADAGNADTWLSRAIPRNWAAFCVNLQARGVGLVTVGLSYGSPSVVVRQVLGWGCGGNELRLYGFCRSSVLCRVWGVSVPLSAFTPCSVDDSIFSLLRYRIFRACAS | not soluble
24 | MGSDKIHHHHHHQAEPAPLASAGPAANDPLEGFNRASFKLGMGLDRALLAPITHGYMAVTPRVVRDRVSLVIYNMGEPNTVMNQVLQGKPRQAVRSSTRFVVNSTVGVAGLFDVAAKMGLPPRGADFGQTFGRWGAGPGAYIYVPLMGPLNVRDGVGRALDIVTDPVSLFVGGLDTDFGRARTAITVVDLRATTDSAYEALKDASDPYVTTRSAYAQYREAFVREATGESEALPDFDAPPSEPNTSSATPNP | not soluble
